Assay results published in patent US20110212106A1, “HIV-1 NE[…] USES THEREOF” (priority 2010, published 2011).

Assays:
[1] = target: HIV-1 gp120 (strain not stated at these places) (HIV-1); experiment: competition ELISA on immobilized gp120, competitor labeled HJ16
[2] = target: IIIB gp120 envelope protein (HIV-1 IIIB) (UniProt P03375); experiment: ELISA, inhibition of gp120 binding to solid-phase sCD4

b12 (antibody) gave a plateau of inhibition [1] of 80% and an IC50 [2] of 1.16 µg/mL.
